Measured values: the supplement of paper PMC9170038

Tested on: MS2 coat protein
Experiment: apparent KD of MS2 coat protein; higher = weaker reporter binding
Conditions: Eterna round: R107; input ligand: theophylline 2 mM
How it was run: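 Apparent KD per design is the median of normalised cluster binding-curve fits. Designed RNA switches transcribed on-chip from Illumina sequencing clusters were titrated with SNAP-549-labelled MS2 coat protein in twofold steps from 0.7 or 1.5 nM to 3 µM, with 0.8–1.5 h down to 10–20 min per step. Buffer: 100 mM Tris-HCl pH 7.5, 80 mM KCl, 4 mM MgCl2, without or with constant ligand.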

**Q.** For “GAUAUACGUGCGGCCGCCACUGAGUGGCGGGCGUGUCGAGUUACAUGAGGAUCACCCAUGUCACUCAGGACCGGGCACGGAAUUU [Soveri]”, which “apparent KD of MS2 coat protein” value is on record?
**A.** 11 nM

**Q.** With “AGCUCGCAAUCCUCAGCGUCAAAGACGCGUCGAGGACCGGUACGGCCGCCACUCGACAAGAGGAUCACCCUUGUCUAAGCGAGCA [TrypAX 5 #SwitchBubble #AlternativeMS2 #MS2Late #CuTurnoff]” as the sequence, how does the “apparent KD of MS2 coat protein” value read?
**A.** 588 nM

**Q.** “GGUUGAAACUGAAGGAGCGAGAUGACAACAUUGGGUCUAACAUGAGGAUCACCCAUGUAAUCUCAGGUAGGUCGCAGUGACCAAA [Exclusion Arginine B GF 14]” was tested. Which “apparent KD of MS2 coat protein” value did it give?
**A.** 46.7 nM

**Q.** With “AUAAAUAAGGCGGCCGCCACUAAUAUAUUAAUAUUUUAUAUCCGACAUGAGGAUCACCCAUGUGGUAGGACCGGGCCAAUAAUUA [Same State - Tryptophan B]” as the sequence, how does the “apparent KD of MS2 coat protein” value read?
**A.** 25 nM

**Q.** How did the “apparent KD of MS2 coat protein” value turn out when “GGUCUCUGGAGCGAUACCAGCUUAAUCGUACUGGCCAGGUACAUGAGGAUCACCCAUGUAAGCCCUUGGCAGCGCUCCAGAGACC [#1 Exclusion - Theophylline B Attempt #11 (HarryS)]” was run?
**A.** 14.4 nM

**Q.** “ACAAUAUUGAGUUUGUCUCAAGUUUCAGAAGGAGCGUGAGGAAUCACAGGUAGGUCGCUGAUAACAUGAGGAUCACCCAUGUAUU [JR_SSArginiA_Sub005]” was tested. Which “apparent KD of MS2 coat protein” value did it give?
**A.** 45.1 nM

**Q.** How did the “apparent KD of MS2 coat protein” value turn out when “UUUACAUGAGGAUCACCCAUGUGCCAUGAUACCAGACAUGAAAAUGUCCCUUGGCAGCAUGAGUGAAGCGUCGGGAAACCGACGC [Kninicky]” was run?
**A.** 297 nM

**Q.** How did the “apparent KD of MS2 coat protein” value turn out when “GGUUACUCUACGGCCGCCACUGAUUAUUUAUAAUCCUGUACAUAAACAUGAGGAUCACCCAUGUACAGGACCGGGUAGUGUAACC [Tryptophan B 11]” was run?
**A.** 33.5 nM

**Q.** How did the “apparent KD of MS2 coat protein” value turn out when “AAUUCCUAACAUGAGGAUCACCCAUGUGAAGGAGCGCGGAAUAACGCAGGUAGGUCGCACAUGGAACCGCUGCGAUAGCAGCAAA [MAT - Exclusion Arginine A - Mod of Eli - D29]” was run?
**A.** 14 nM

Same assay, conditions: Eterna round: R107; input ligand: tryptophan 2.4 mM

**Q.** “UGCCGAGACGUGGAUUACCCGUGUACCGAAGGAGCGCCCGAAAGGGCAGGUAGGUCGCGGAGGACAUGAGGAUCACCCAUGUUUA” was tested. Which “apparent KD of MS2 coat protein” value did it give?
**A.** 55.7 nM

**Q.** How did the “apparent KD of MS2 coat protein” value turn out when “UUCUACAUGAGGAUCACCCAUGUGGGUGAUACCAGCACUUUUUGGUGCCCUUGGCAGCACAUGAGAAUACCGUACGAUCGGCGAU [Arainbi]” was run?
**A.** 609 nM

**Q.** How did the “apparent KD of MS2 coat protein” value turn out when “AAACAUGAGGAUCACCCAUGUAAAGUUGAAGGAGCGACCAGAGGGUCAGGUAGGUCGCAACACAUGAGGAUCACCCAUGUAUCGA [DOUBLE!!! :-D #5]” was run?
**A.** 72.7 nM

**Q.** With “ACACAUGAGGAUCAUCCAUGUGCCCAUGAAGGAGCGUGGGAAACCACAGGUAGGUCGCAUGACAUGAGGAUCACCCAUGUUUAUU [#03 Exclusion - Arginine A]” as the sequence, how does the “apparent KD of MS2 coat protein” value read?
**A.** 209 nM

**Q.** How did the “apparent KD of MS2 coat protein” value turn out when “ACGUCACGUUUACUCGUGGUUUCGUUCGAUACCAGUAGCGAGAGUUACCCUUGGCAGCGACAUGAGGAUCACCCAUGUACGAAGA [XTheo A #24]” was run?
**A.** 12.9 nM

**Q.** Which “apparent KD of MS2 coat protein” value does the source give for “CGGUUUGUGAUGGAUACCAGCAGUGUGGCUGUUUAUCCUGACAUGAGGAUCACCCAUGUGUGCCCUUGGCAGCUGUUGUGGGCUG [8.aC]” here?
**A.** 77 nM

**Q.** With “GACAUGAGGAUCACCCAUGUGUAACCAGAAGGAGCGUGCGAAAGCACAGGUAGGUCGCUGGUGGGUUUAGGUUUAGUAGGUGUUC [SSAA NP+V+V2 #3]” as the sequence, how does the “apparent KD of MS2 coat protein” value read?
**A.** 56.4 nM

**Q.** How did the “apparent KD of MS2 coat protein” value turn out when “GGGACAUGAGGAUCACCCAUGUACCGGUCCCGAGGACCGGUACGGCCGCCACUCGAUGACCUCAUAGUCUACUUGAGCAGUAGAC [Geeson]” was run?
**A.** 100 nM

**Q.** How did the “apparent KD of MS2 coat protein” value turn out when “GGGCCCGGGCGCGAGCCCGGGCCCAUUGAUACCAGUGAAUGUGUGCGCCCUUGGCAGCGAAUCCUAACAUGAGGAUCACCCAUGU [5.E]” was run?
**A.** 48.3 nM

**Q.** Which “apparent KD of MS2 coat protein” value does the source give for “GCACCAGGUACGGAUACCAGAGCAAGCCAAAUGAGUGAACUUGAGGAUCACCCAAGUUUGCUCCCUUGGCAGCCGUACCUGGUGC [ETB NP+V+V2 #12 Diff Apt, +-Same Structure]” here?
**A.** 8.49 nM

**Q.** For “ACAUGAGGAUCACCCAUGUCAUGAGGUUCACGAGGACCGGUACGGCCGCCACUCGACAUGAGGGUCACCCGUGAAGGGAACACCC [xdmullin]”, which “apparent KD of MS2 coat protein” value is on record?
**A.** 17.9 nM

**Q.** How did the “apparent KD of MS2 coat protein” value turn out when “GGCACCAGGAGAAGGAGCGUGAAGACAUGAGGAUCACCCAUGUAGAGGCCCGGACCGGGUUCGCAGGUAGGUCGCUCCUGGUGCC [#1 Same State - Arginine B Attempt #15 (HarryS)]” was run?
**A.** 16.9 nM

**Q.** For “AAUUAAUUAACCGAUACCAGCCAACCAAAACAUGAGGAUCACCCAUGUAAGAAGAAGGGUGGCCCUUGGCAGCGGUUAAUUAAUU”, which “apparent KD of MS2 coat protein” value is on record?
**A.** 30.5 nM

**Q.** How did the “apparent KD of MS2 coat protein” value turn out when “AGGACGGUCGGAAGGAGCGGUACAUGAGGAUCACCCAUGUAUUCCUGGGCAUCCGUAGUGUGCCAGGUAGGUCGCCGAUUGCGGG [XArg-B7]” was run?
**A.** 64.8 nM

**Q.** “UAUCCACAUGAGGAUCACCCAUGUUAGGAAGGAGCGGUGAAUGAACCAGGUAGGUCGCCUAGGUGAGGACCAUCUAUGGAUUCGU [Exclusion - Arginine A (Freestyle 12)]” was tested. Which “apparent KD of MS2 coat protein” value did it give?
**A.** 13.1 nM

**Q.** Which “apparent KD of MS2 coat protein” value does the source give for “AACAUGAGGAUCACCCAUGUAAAAUGGGAUACCAGAGACGAAAGUCUCCCUUGGCAGCCCACUGCCUCCUUUACGAAAGUAGAGG [Theophylline A 15]” here?
**A.** 38.3 nM

**Q.** Which “apparent KD of MS2 coat protein” value does the source give for “AGCUCGCAAUCCUCAGCGUCAAAGACGCGUCGAGGACCGGUACGGCCGCCACUCGACAAGAGGAUCACCCUUGUCUAAGCGAGCA [TrypAX 5 #SwitchBubble #AlternativeMS2 #MS2Late #CuTurnoff]” here?
**A.** 114 nM

**Q.** With “AUAAGUAAUGUCUCGUGUAUUAUUACAGAUACCAGACUAUCCUAUGUCCCUUGGCAGCUGGAUUACAUGAGGAUCACCCAUGUUG [#10 Exclusion-TheophyllineA]” as the sequence, how does the “apparent KD of MS2 coat protein” value read?
**A.** 22 nM

**Q.** “GGUUGAAACUGAAGGAGCGAGAUGACAACAUUGGGUCUAACAUGAGGAUCACCCAUGUAAUCUCAGGUAGGUCGCAGUGACCAAA [Exclusion Arginine B GF 14]” was tested. Which “apparent KD of MS2 coat protein” value did it give?
**A.** 43.1 nM

**Q.** For “AUCGUACCUGAUGAUACCAGCAAGUGAUCAUAACAUGAGGAUCACCCAUGUAAUCAGUGAUGCCCUUGGCAGCAUAGUCGAUACA [Same State - Theophylline B (Freestyle 5)]”, which “apparent KD of MS2 coat protein” value is on record?
**A.** 166 nM

**Q.** With “GAGCGCAGUUUACAACAUACUAACACAGAUACCAGAAAUUUUAUGUUCCCUUGGCAGCUGACAACAUGAGGAUCACCCAUGUGCU [theeternabot_exclusion_MS2_Theo_A_27]” as the sequence, how does the “apparent KD of MS2 coat protein” value read?
**A.** 15.7 nM

**Q.** For “AUAAGUAUGUUUUCGUGUUUUAUUACAGAUACCAGACUAUACGUUGUCCCUUGGCAGCUGGAUUACAUGAGGAUCACCCAUGUUG [#26 Exclusion-TheophyllineA]”, which “apparent KD of MS2 coat protein” value is on record?
**A.** 23.1 nM

**Q.** With “GAUGAACUAUUUGAUACCAGACAACAUGAGGAUCACCCAUGUGCGCGUCGUCCUCUGCCUGUCCCUUGGCAGCGGAUAGUUUAUC [XTheo B #12]” as the sequence, how does the “apparent KD of MS2 coat protein” value read?
**A.** 34.9 nM

**Q.** With “GGUCUCUGGAGCGAUACCAGCUUAAUCGUACUGGCCAGGUACAUGAGGAUCACCCAUGUAAGCCCUUGGCAGCGCUCCAGAGACC [#1 Exclusion - Theophylline B Attempt #11 (HarryS)]” as the sequence, how does the “apparent KD of MS2 coat protein” value read?
**A.** 10.5 nM

**Q.** “ACAAUAUUGAGUUUGUCUCAAGUUUCAGAAGGAGCGUGAGGAAUCACAGGUAGGUCGCUGAUAACAUGAGGAUCACCCAUGUAUU [JR_SSArginiA_Sub005]” was tested. Which “apparent KD of MS2 coat protein” value did it give?
**A.** 35 nM

**Q.** With “UUUACAUGAGGAUCACCCAUGUGCCAUGAUACCAGACAUGAAAAUGUCCCUUGGCAGCAUGAGUGAAGCGUCGGGAAACCGACGC [Kninicky]” as the sequence, how does the “apparent KD of MS2 coat protein” value read?
**A.** 261 nM

**Q.** How did the “apparent KD of MS2 coat protein” value turn out when “UCGCAUUGCUCAGAUACCAGACAUGAGGAUCACCCAUGUACCAAGGUAACCGAAAGGCAUGUCCCUUGGCAGCUGAGCAAUGCGU [MAT - Exclusion Theophlline B - Mod of Eli - D14]” was run?
**A.** 13.1 nM

**Q.** “AAUUCCUAACAUGAGGAUCACCCAUGUGAAGGAGCGCGGAAUAACGCAGGUAGGUCGCACAUGGAACCGCUGCGAUAGCAGCAAA [MAT - Exclusion Arginine A - Mod of Eli - D29]” was tested. Which “apparent KD of MS2 coat protein” value did it give?
**A.** 12.5 nM
